Experimental data from paper PMC6182155 (Nucleic Acids Research, 2018).
Changes are numbered by the printed parent chain. In names and notes the source's numbering stands.

B1: EcoKMcrA with C-terminal His6-tag (EcoKMcrA_(1-277)-GHHHHHHG), wild type (enzyme, E. coli (K strains), UniProt P24200 1-277, looked up)
chain: MHVFDNNGIELKAECSIGEEDGVYGLILESWGPGDRNKDYNIALDYIIERLVDSGVSQVVVYLASSSVRKHMHSLDERKIHPGEYFTLIGNSPRDIRLKMCGYQAYFSRTGRKEIPSGNRTKRILINVPGIYSDSFWASIIRGELSELSQPTDDESLLNMRVSKLIKKTLSQPEGSRKPVEVERLQKVYVRDPMVKAWILQQSKGICENCGKNAPFYLNDGNPYLEVHHVIPLSSGGADTTDNCVALCPNCHRELHYSKNAKELIEMLYVNINRLQK
B2: EcoKMcrA K196E variant with N-terminal His6-tag (…-EcoKMcrA_(1-277)) (enzyme, E. coli (K strains), UniProt P24200 1-277, looked up)
chain: B1 chain with K196E

Key:
SEC = target: the molecule itself; experiment: SEC
crystal structure = target: the molecule itself; experiment: crystal structure

Protein	stoichiometry N (SEC)	binding result (crystal structure)
B1	2	
B2		binds
